Results as given in patent US6824972 (BAYLOR COLLEGE OF MEDICINE, dated 2004).

Target: T1, NF-κB relA subunit (human, UniProt Q04206 1-551)
T1 construct: also called re1A; p65
Assay: EMSA with supershift (antisera to p50 and relA), nuclear extracts of TNF-stimulated normal and patient G embryonic fibroblasts, 32P-labelled MHC-1 probe

T1 sequence (Q04206 whole entry): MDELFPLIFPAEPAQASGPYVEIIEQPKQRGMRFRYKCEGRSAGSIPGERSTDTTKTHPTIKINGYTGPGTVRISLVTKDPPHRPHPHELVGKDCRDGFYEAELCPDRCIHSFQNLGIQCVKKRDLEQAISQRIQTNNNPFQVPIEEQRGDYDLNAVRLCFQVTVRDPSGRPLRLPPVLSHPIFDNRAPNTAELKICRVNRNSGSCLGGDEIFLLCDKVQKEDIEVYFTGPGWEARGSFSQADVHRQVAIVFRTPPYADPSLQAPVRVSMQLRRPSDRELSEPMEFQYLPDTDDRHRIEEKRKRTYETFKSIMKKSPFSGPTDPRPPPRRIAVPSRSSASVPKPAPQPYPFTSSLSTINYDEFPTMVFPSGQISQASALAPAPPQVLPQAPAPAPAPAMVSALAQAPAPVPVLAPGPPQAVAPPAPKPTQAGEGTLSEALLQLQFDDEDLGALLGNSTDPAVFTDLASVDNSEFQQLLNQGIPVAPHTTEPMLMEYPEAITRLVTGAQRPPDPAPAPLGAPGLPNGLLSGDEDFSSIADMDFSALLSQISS

B1: NF-κB p50 subunit (other, human, UniProt P19838 1-433, looked up)
chain: MAEDDPYLGRPEQMFHLDPSLTHTIFNPEVFQPQMALPTDGPYLQILEQPKQRGFRFRYVCEGPSHGGLPGASSEKNKKSYPQVKICNYVGPAKVIVQLVTNGKNIHLHAHSLVGKHCEDGICTVTAGPKDMVVGFANLGILHVTKKKVFETLEARMTEACIRGYNPGLLVHPDLAYLQAEGGGDRQLGDREKELIRQAALQQTKEMDLSVVRLMFTAFLPDSTGSFTRRLEPVVSDAIYDSKAPNASNLKIVRMDRTAGCVTGGEEIYLLCDKVQKDDIQIRFYEEEENGGVWEGFGDFSPTDVHRQFAIVFKTPKYKDINITKPASVFVQLRRKSDLETSEPKPFLYYPEIKDKEEVQRKRQKLMPNFSDSFGGGSGAGAGGGGMFGSGGGGGGTGSTGPGYSFPHYGFPTYGGITFHPGTTKSNAGMKHG
binding result: binds
